Measured values from PMC5007091 (Molecular Biology of the Cell, 2016).

Target: the molecule itself
Test: split reporter

B1: Cdc10 (natural protein)
chain: MDPLSSVQPASYVGFDTITNQIEHRLLKKGFQFNIMVVGQSGLGKSTLINTLFASHLIDSATGDDISALPVTKTTEMKISTHTLVEDRVRLNINVIDTPGFGDFIDNSKAWEPIVKYIKEQHSQYLRKELTAQRERFITDTRVHAILYFLQPNGKELSRLDVEALKRLTEIANVIPVIGKSDTLTLDERTEFRELIQNEFEKYNFKIYPYDSEELTDEELELNRSVRSIIPFAVVGSENEIEINGETFRGRKTRWSAINVEDINQCDFVYLREFLIRTHLQDLIETTSYIHYEGFRARQLIALKENANSRSSAHMSSNAIQR
fluorescence at the bud neck, fold over the negative controls: > 20 fold
